Tests used:
[1] = target: ESX-3 core complex protomer EccB3:EccC3:EccD3:EccE3, from pMyNT:ESX-3 (whole gene cluster) (Mycobacterium smegmatis) (UniProt A0QQ39); experiment: SEC
[2] = target: EccB3:EccC3:EccD3 subcomplex (Mycobacterium smegmatis) (UniProt A0QQ39); experiment: SEC
[3] = target: ESX-3 core complex protomer EccB3:EccC3:EccD3:EccE3 (1:1:2:1), from pMyNT:Mini (Mycobacterium smegmatis) (UniProt A0QQ39); experiment: cryo-EM structure
[4] = target: the molecule itself; experiment: cryo-EM structure
[5] = target: T1, EccC3 with C-terminal His-tag (Mycobacterium smegmatis, UniProt A0QQ40 1-1325); experiment: densitometry of SDS-PAGE bands
T1 sequence: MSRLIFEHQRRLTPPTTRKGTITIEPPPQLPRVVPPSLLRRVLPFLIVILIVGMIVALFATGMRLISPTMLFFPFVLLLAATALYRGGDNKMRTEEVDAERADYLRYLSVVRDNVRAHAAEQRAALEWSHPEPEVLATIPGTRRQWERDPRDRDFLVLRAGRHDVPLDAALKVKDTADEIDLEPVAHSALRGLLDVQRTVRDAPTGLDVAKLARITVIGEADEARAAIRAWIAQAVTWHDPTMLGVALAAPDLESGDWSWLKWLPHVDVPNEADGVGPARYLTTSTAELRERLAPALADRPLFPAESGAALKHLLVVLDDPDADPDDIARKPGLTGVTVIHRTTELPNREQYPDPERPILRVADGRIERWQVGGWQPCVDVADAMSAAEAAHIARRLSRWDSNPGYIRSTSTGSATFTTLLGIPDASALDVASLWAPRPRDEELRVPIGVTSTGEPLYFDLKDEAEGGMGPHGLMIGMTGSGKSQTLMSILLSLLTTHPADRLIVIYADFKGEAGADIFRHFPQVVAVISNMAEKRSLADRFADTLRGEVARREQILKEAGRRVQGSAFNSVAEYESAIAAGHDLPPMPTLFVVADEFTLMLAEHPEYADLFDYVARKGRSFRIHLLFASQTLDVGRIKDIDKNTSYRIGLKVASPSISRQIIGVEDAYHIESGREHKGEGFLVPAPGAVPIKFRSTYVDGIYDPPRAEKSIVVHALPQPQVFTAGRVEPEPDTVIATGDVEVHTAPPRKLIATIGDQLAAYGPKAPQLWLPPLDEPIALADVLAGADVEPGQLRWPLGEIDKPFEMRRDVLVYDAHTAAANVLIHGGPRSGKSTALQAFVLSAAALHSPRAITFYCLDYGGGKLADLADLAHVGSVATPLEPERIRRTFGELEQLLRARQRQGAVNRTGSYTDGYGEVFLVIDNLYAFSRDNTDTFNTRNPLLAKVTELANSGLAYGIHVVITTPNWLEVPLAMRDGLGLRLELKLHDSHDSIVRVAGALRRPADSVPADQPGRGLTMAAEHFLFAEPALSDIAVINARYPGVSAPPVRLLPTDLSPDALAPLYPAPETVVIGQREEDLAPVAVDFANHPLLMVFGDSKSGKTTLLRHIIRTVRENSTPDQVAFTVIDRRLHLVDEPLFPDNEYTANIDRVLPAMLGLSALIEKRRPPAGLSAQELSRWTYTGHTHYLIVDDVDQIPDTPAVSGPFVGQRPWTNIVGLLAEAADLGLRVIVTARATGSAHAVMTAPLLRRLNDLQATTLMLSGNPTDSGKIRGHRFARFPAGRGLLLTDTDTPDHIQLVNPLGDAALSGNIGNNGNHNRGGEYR

[6] = target: the molecule itself; experiment: SEC-MALS

ESX-3 core complex protomer EccB3:EccC3:EccD3:EccE3, from pMyNT:ESX-3 (whole gene cluster) (from UniProt A0QQ39;A0QQ40;A0QQ46;A0QQ48)
stoichiometry N [1]: 2

EccB3:EccC3:EccD3 subcomplex (from UniProt A0QQ39;A0QQ40;A0QQ46)
stoichiometry N [2]: 2

ESX-3 core complex protomer EccB3:EccC3:EccD3:EccE3 (1:1:2:1), from pMyNT:Mini (from UniProt A0QQ39;A0QQ40;A0QQ46;A0QQ48)
stoichiometry N [3]: 2

B1: EccB3 (natural protein)
chain: MTGPVNPDDRRSFSSRTPVNENPDGVQYRRGFVTRHQVSGWRFVMRRIASGVALHDTRMLVDPLRTQSRAVLTGALILVTGLVGCFIFSLFRPGGVPGNNAILADRSTSALYVRVGEQLHPVLNLTSARLISGSPDNPTMVKTSEIDKFPRGNLLGIPGAPERMVQNAATDAEWTVCDAVGGANPGVTVIAGPLGADGERAAPLPPDHAVLVHSDAEPNPGDWLLWDGKRSPIDLADRAVTDALGLGGQALAPRPIAAGLFNAVPAAPALTAPVIPDAGAAPQFELSLPVPVGAVVVAYDADNTARYYAVLSDGLQPISPVLAAILRNTDSHGFAQPPRLGPDEVARTPMSRGLDTSAYPDNPVTLVEASAHPVTCAHWTKPSDAAESSLSVLSGAVLPLAEGLHTVDLVGAGAGGAANRVALTPGTGYFVQTVGAEPGSPTAGSMFWVSDTGVRYGIDTAEDDKVVAALGLSTSPLPVPWSVLSQFAAGPALSRGDALVAHDAVSTNPNSARMEASR
stoichiometry N [4]: 2 | stoichiometry N [5]: 1

B2: EccD3 with N-terminal Strep-tag II (natural protein)
chain: MSENTVMPIVRVAVLAAGDDGGRLTEMALPSELPLREILPAVQRIVQPARENDGAADPAAAPNPVRLSLAPIGGAPFSLDATLDTVGVVDGDLLALQAVPSGPPAPRIVEDIADAAVIFSEARRRQWGPTHIARGAALALIGLILVGTGLSVAHRVITGDLLGQFIVSGIALATVIAALAVRNRSAVLATSLAVTALVPVAAAFALGVPGDFGAPNVLLAAAGVAAWSLISMAGSPDDRGIAVFTATAVTGVGVLLVAGAASLWVISSDVIGCALVLLGLIVTVQAAQLSAMWARFPLPVIPAPGDPTPAARPLSVLADLPRRVRVSQAHQTGVIAAGVLLGVAGSVALVSSANASPWAWYIVVAAAAGAALRARVWDSAACKAWLLGHSYLLAVALLVAFVIGDRYQAALWALAALAVLVLVWIVAALNPKIASPDTYSLPMRRMVGFLATGLDASLIPVMALLVGLFSLVLDR
stoichiometry N [6]: 2 | stoichiometry N [5]: 2

B3: EccD3 (untagged, from the ESX-3 gene cluster plasmid pMyNT:ESX-3) (natural protein)
chain: MSENTVMPIVRVAVLAAGDDGGRLTEMALPSELPLREILPAVQRIVQPARENDGAADPAAAPNPVRLSLAPIGGAPFSLDATLDTVGVVDGDLLALQAVPSGPPAPRIVEDIADAAVIFSEARRRQWGPTHIARGAALALIGLILVGTGLSVAHRVITGDLLGQFIVSGIALATVIAALAVRNRSAVLATSLAVTALVPVAAAFALGVPGDFGAPNVLLAAAGVAAWSLISMAGSPDDRGIAVFTATAVTGVGVLLVAGAASLWVISSDVIGCALVLLGLIVTVQAAQLSAMWARFPLPVIPAPGDPTPAARPLSVLADLPRRVRVSQAHQTGVIAAGVLLGVAGSVALVSSANASPWAWYIVVAAAAGAALRARVWDSAACKAWLLGHSYLLAVALLVAFVIGDRYQAALWALAALAVLVLVWIVAALNPKIASPDTYSLPMRRMVGFLATGLDASLIPVMALLVGLFSLVLDR
stoichiometry N [5]: 2

B4: EccE3 (natural protein)
chain: MTARIALASLFVVAAVLAQPWQTTTQRWVLGVSIAAVIVLLAWWKGMFLTTRIGRALAMVRRNRAEDTVETDAHRATVVLRVDPAAPAQLPVVVGYLDRYGITCDKVRITHRDAGGTRRSWISLTVDAVDNLAALQARSARIPLQDTTEVVGRRLADHLREQGWTVTVVEGVDTPLPVSGKETWRGVADDAGVVAAYRVKVDDRLDEVLAEIGHLPAEETWTALEFTGSPAEPLLTVCAAVRTSDRPAAKAPLAGLTPARGRHRPALAALNPLSTERLDGTAVPLPAVVRTSVKGSVEHEAAQEAGHPA
stoichiometry N [5]: 1

Reference: article PMC6914368 (Nature, 2019)
